Data: paper PMC4154877, “Mouse, but Not Human, ApoB-100 Lipoprotein Cholesterol Is a Potent Innate Inhibitor of Streptococcus pneumoniae Pneumolysin” (PLoS Pathogens, 2014)
Changes are numbered by the printed parent chain. Names may count otherwise.

B1: pre-pore locked pneumolysin with Cys-117, labelled with Alexa Fluor 488 or 568 (PLY^PPL D117C) (natural protein, Streptococcus pneumoniae, UniProt P0C2J9 1-471, looked up)
chain: MANKAVNDFILAMNYDKKKLLTHQCESIENRFIKEGNQLPDEFVVIERKKRSLSTNTSDISVTATNDSRLYPGALLVVDETLLENNPTLLAVDRAPMTYSIDLPGLASSDSFLQVECPSNSSVRGAVNDLLAKWHQDYGQVNNVPARMQYEKITAHSMCQLKVKFGSDFEKTGNSLDIDFNSVHSGEKQIQIVNFKQIYYTVSVDAVKNPGDVFQDTVTVEDLKQRGISAERPLVYISSVAYGRQVYLKLETTSKSDEVEAAFEALIKGVKVAPQTEWKQILDNTEVKAVILGGDPSSGARVVTGKVDMVEDLIQEGSRFTADHPGLPISYTTSFLRDNVVATFQNSTDYVETKVTAYRNGDLLLDHSGAYVAQYYITWNELSYDHQGKEVLTPKAWDRNGQDLTAHFTTSIPLKGNVRNLSVKIREATGLAWEWWRTVYEKTDLPLVRKRTISIWGTTLYPQVEDKVEND
modifications: Alexa Fluor 488 (donor) or Alexa Fluor 568 (acceptor) on the sulfhydryl of Cys-117; disulfide between cysteine-substituted Gly-25 and Glu-159
notes: Donor-labelled protein was mixed with acceptor-labelled or unlabelled (U) protein in the FRET assay; also called D labeled PLY^PPL; A labeled PLY^PPL; source: E. coli Tuner cells, purified
B2: pre-pore locked pneumolysin (PLY^PPL) (natural protein)
chain: B1 chain with C117D
modifications: disulfide between cysteine-substituted Gly-25 and Glu-159
notes: pneumolysin (PLY) of Streptococcus pneumoniae, codon-optimised gene in pET-15b (NdeI/BamHI); cysteine-less background (Cys-428 to Ala) with a disulfide between Cys-25 and Cys-159; also called prepore locked version of PLY; source: E. coli Tuner cells, purified

Legend:
[1] = biological target: the molecule itself; test: FRET or BRET
[2] = biological target: the molecule itself; test: SDS-agarose gel electrophoresis of SDS-resistant oligomer, immunoblot; PLY^PPL incubated with mouse or human serum diluted 1:2 to 1:40 in HEPES buffered saline, 37°C, 20 minutes; SDS-AGE (1.5%), blot probed with rabbit anti-PLY serum

| Protein | binding result [1] | binding result [2] |
| --- | --- | --- |
| B1 | binds | – |
| B2 | – | binds |
